According to PMC11020753, “Contribution of amino acids in the active site of dipeptidyl peptidase 4 to the catalytic action of the enzyme” (PLOS ONE, 2024):
pIC50: −log10 of the molar value. Non-standard residues stand in square brackets, D forms with d. Residues, ends and D or L forms follow the SMILES beside them. Tle = CC(C)(C)[C@H](N)C(=O)O

Key:
Type in all cases: biochemical
DP4 variant E205A [1] = biological target: T1, DP4 variant E205A (Homo sapiens, UniProt P27487, E205A); assay: IC50 determination with substrate Gly-Pro-AMC; settings: 100 mM HEPES-buffer (pH 7.6), T = 30 °C, substrate Gly-Pro-AMC in the range of Km
T1 construct: His(6)-37-766 hDP4 containing fractions were concentrated to 1 ml as described above; His6 (N); made in house; host or cells: Pichia pastoris X-33, vector pPICZα C (secreted)
T1 sequence (P27487 37-766 E205A): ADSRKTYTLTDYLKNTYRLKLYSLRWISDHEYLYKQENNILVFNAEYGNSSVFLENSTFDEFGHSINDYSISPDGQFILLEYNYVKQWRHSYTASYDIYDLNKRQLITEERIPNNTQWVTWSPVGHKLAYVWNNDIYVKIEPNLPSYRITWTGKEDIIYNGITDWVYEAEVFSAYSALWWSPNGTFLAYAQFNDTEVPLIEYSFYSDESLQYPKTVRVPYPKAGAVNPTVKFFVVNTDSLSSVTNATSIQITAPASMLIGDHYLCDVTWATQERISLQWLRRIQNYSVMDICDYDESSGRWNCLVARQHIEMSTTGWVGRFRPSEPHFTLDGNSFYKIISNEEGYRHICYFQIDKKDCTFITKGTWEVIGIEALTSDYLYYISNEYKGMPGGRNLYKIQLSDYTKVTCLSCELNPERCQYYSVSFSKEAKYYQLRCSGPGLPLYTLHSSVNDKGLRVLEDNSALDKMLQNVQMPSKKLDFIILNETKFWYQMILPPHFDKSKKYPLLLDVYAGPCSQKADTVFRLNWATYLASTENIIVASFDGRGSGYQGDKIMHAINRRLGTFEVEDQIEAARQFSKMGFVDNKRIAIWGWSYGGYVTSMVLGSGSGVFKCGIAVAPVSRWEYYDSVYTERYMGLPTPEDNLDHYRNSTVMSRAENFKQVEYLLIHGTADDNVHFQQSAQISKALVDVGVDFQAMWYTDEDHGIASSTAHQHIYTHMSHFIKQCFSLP
Procedure: (§1) The reactions were performed in 100 mM HEPES buffer, pH 7.6 at 30°C in a total assay volume of 270 μl by using 96-well plates. […] Fluorescence was detected with a […]luor Plus (TECAN) at an excitation wavelength of 380 nm and an emission wavelength of 465 nm.

DP4 variant E206A [2] = biological target: T2, DP4 variant E206A (Homo sapiens, UniProt P27487, E206A); assay: IC50 determination with substrate Gly-Pro-AMC; settings: bounds given in mM, 100 mM HEPES-buffer (pH 7.6), T = 30 °C, substrate Gly-Pro-AMC in the range of Km
T2 construct: His(6)-37-766 hDP4 containing fractions were concentrated to 1 ml as described above; His6 (N); made in house; host or cells: Pichia pastoris X-33, vector pPICZα C (secreted)
T2 sequence (P27487 37-766 E206A): as the sequence (P27487 37-766 E205A) above, with A169E, E170A counted along it
Procedure: as §1

DP4 variant N710A [3] = biological target: T3, DP4 variant N710A (Homo sapiens, UniProt P27487, N710A); assay: IC50 determination with substrate Gly-Pro-AMC; settings: 100 mM HEPES-buffer (pH 7.6), T = 30 °C, substrate Gly-Pro-AMC in the range of Km
T3 construct: His(6)-37-766 hDP4 containing fractions were concentrated to 1 ml; made in house; host or cells: Pichia pastoris X-33 (vector pPICZα C, secreted)
T3 sequence (P27487 37-766 N710A): as the sequence (P27487 37-766 E205A) above, with A169E, N674A counted along it
Procedure: as §1

DP4 variant N710D [4] = biological target: T4, DP4 variant N710D (Homo sapiens, UniProt P27487, N710D); assay: IC50 determination with substrate Gly-Pro-AMC; settings: 100 mM HEPES-buffer (pH 7.6), T = 30 °C, substrate Gly-Pro-AMC in the range of Km
T4 construct: His(6)-37-766 hDP4 containing fractions were concentrated to 1 ml; made in house; host or cells: Pichia pastoris X-33 (vector pPICZα C, secreted)
T4 sequence (P27487 37-766 N710D): as the sequence (P27487 37-766 E205A) above, with A169E, N674D counted along it
Procedure: as §1

DP4 variant N710Q [5] = biological target: T5, DP4 variant N710Q (Homo sapiens, UniProt P27487, N710Q); assay: IC50 determination with substrate Gly-Pro-AMC; settings: bounds given in mM, 100 mM HEPES-buffer (pH 7.6), T = 30 °C, substrate Gly-Pro-AMC in the range of Km
T5 construct: His(6)-37-766 hDP4 containing fractions were concentrated to 1 ml; made in house; host or cells: Pichia pastoris X-33 (vector pPICZα C, secreted)
T5 sequence (P27487 37-766 N710Q): as the sequence (P27487 37-766 E205A) above, with A169E, N674Q counted along it
Procedure: as §1

DP4 variant R125A [6] = biological target: T6, DP4 variant R125A (Homo sapiens, UniProt P27487, R125A); assay: IC50 determination with substrate Gly-Pro-AMC; settings: 100 mM HEPES-buffer (pH 7.6), T = 30 °C, substrate Gly-Pro-AMC in the range of Km
T6 construct: His(6)-37-766 hDP4 containing fractions were concentrated to 1 ml; made in house; host or cells: Pichia pastoris X-33 (vector pPICZα C, secreted)
T6 sequence (P27487 37-766 R125A): as the sequence (P27487 37-766 E205A) above, with R89A, A169E counted along it
Procedure: as §1

DP4 variant R125K [7] = biological target: T7, DP4 variant R125K (Homo sapiens, UniProt P27487, R125K); assay: IC50 determination with substrate Gly-Pro-AMC; settings: 100 mM HEPES-buffer (pH 7.6), T = 30 °C, substrate Gly-Pro-AMC in the range of Km
T7 construct: His(6)-37-766 hDP4 containing fractions were concentrated to 1 ml; made in house; host or cells: Pichia pastoris X-33 (vector pPICZα C, secreted)
T7 sequence (P27487 37-766 R125K): as the sequence (P27487 37-766 E205A) above, with R89K, A169E counted along it
Procedure: as §1

wild type DP4 [8] = biological target: T8, wild type DP4 (Homo sapiens, UniProt P27487); assay: IC50 determination with substrate Gly-Pro-AMC; settings: 100 mM HEPES-buffer (pH 7.6), T = 30 °C, substrate Gly-Pro-AMC in the range of Km
T8 construct: His(6)-37-766 hDP4 containing fractions were concentrated to 1 ml; made in house; host or cells: Pichia pastoris X-33 (vector pPICZα C, secreted)
T8 sequence (P27487 37-766): as the sequence (P27487 37-766 E205A) above, with A169E counted along it
Procedure: as §1

DP4 variant E205A [9] = biological target: T1, DP4 variant E205A; assay: Km and kcat determination by LC/MS-MS assay; settings: hydrolysis of peptide hormone, 10 mM Tris-buffer (pH 7.6), T = 30 °C
Procedure: (§2) Therefore, DP4 was incubated with different substrate concentrations in 10 mM Tris-buffer pH 7.6 at 30°C. Enzyme concentrations and incubation times were chosen to obtain a linear product formation. After selected time points, samples were taken and the reaction stopped by addition of 19 volumes 0,1% HCOOH. Cleavage products were quantified in the respective samples by LC/MS-MS assay.

DP4 variant E206A [10] = biological target: T2, DP4 variant E206A; assay: Km and kcat determination by LC/MS-MS assay; settings: hydrolysis of peptide hormone, 10 mM Tris-buffer (pH 7.6), T = 30 °C
Procedure: as §2

DP4 variant N710A [11] = biological target: T3, DP4 variant N710A; assay: Km and kcat determination by LC/MS-MS assay; settings: hydrolysis of peptide hormone, 10 mM Tris-buffer (pH 7.6), T = 30 °C
Procedure: as §2

DP4 variant N710D [12] = biological target: T4, DP4 variant N710D; assay: Km and kcat determination by LC/MS-MS assay; settings: hydrolysis of peptide hormone, 10 mM Tris-buffer (pH 7.6), T = 30 °C
Procedure: as §2

DP4 variant N710Q [13] = biological target: T5, DP4 variant N710Q; assay: Km and kcat determination by LC/MS-MS assay; settings: hydrolysis of peptide hormone, 10 mM Tris-buffer (pH 7.6), T = 30 °C
Procedure: as §2

DP4 variant R125A [14] = biological target: T6, DP4 variant R125A; assay: Km and kcat determination by LC/MS-MS assay; settings: hydrolysis of peptide hormone, 10 mM Tris-buffer (pH 7.6), T = 30 °C
Procedure: as §2

DP4 variant R125K [15] = biological target: T7, DP4 variant R125K; assay: Km and kcat determination by LC/MS-MS assay; settings: hydrolysis of peptide hormone, 10 mM Tris-buffer (pH 7.6), T = 30 °C
Procedure: as §2

wild type DP4 [16] = biological target: T8, wild type DP4; assay: Km and kcat determination by LC/MS-MS assay; settings: hydrolysis of peptide hormone, 10 mM Tris-buffer (pH 7.6), T = 30 °C
Procedure: as §2

DP4 variant R125K [17] = biological target: T7, DP4 variant R125K; assay: Cleavage of peptide hormones by MALDI-TOF mass spectrometry; set-up: key: +++: hydrolysis is comparable with the data obtained from the wild type enzyme; -: hydrolysis below 0,01% of the wild type enzyme; settings: T = 37 °C, 100 mM Tris-HCl, pH 7.6, substrate concentration 25 μM
Procedure: (§3) Enzyme concentration 5 x 10^−9 M, substrate concentration 25 μM, reaction time 1–3 hours, depending on the respective hydrolysis rate. Reactions were stopped by addition of 1 volume DHAP/DAHC-matrix, dissolved in 50% (v/v) acetonitrile, after certain time points. The matrix-sample mixture was placed in a vacuum, which caused the proteins to crystallize together with the matrix. Using the mass spectrometer "LD-TOF System G2025" from Hewlett Packard, the relative amount of substrate and respective product peaks in the samples could be determined. Relative hydrolysis rates were depicted by plotting relative substrate concentration against time.

wild type DP4 [18] = biological target: T8, wild type DP4; assay: as above; set-up: key: +++: hydrolysis is comparable with the data obtained from the wild type enzyme; -: hydrolysis below 0,01% of the wild type enzyme; settings: T = 37 °C, 100 mM Tris-HCl, pH 7.6, substrate concentration 25 μM
Procedure: as §3

DP4 variant E205A [19] = biological target: T1, DP4 variant E205A; assay: as above; settings: T = 37 °C, 100 mM Tris-HCl, pH 7.6, substrate concentration 25 μM
Procedure: as §3

DP4 variant E206A [20] = biological target: T2, DP4 variant E206A; assay: as above; settings: T = 37 °C, 100 mM Tris-HCl, pH 7.6, substrate concentration 25 μM
Procedure: as §3

DP4 variant N710A [21] = biological target: T3, DP4 variant N710A; assay: as above; settings: T = 37 °C, 100 mM Tris-HCl, pH 7.6, substrate concentration 25 μM
Procedure: as §3

DP4 variant N710D [22] = biological target: T4, DP4 variant N710D; assay: as above; settings: T = 37 °C, 100 mM Tris-HCl, pH 7.6, substrate concentration 25 μM
Procedure: as §3

DP4 variant N710Q [23] = biological target: T5, DP4 variant N710Q; assay: as above; settings: T = 37 °C, 100 mM Tris-HCl, pH 7.6, substrate concentration 25 μM
Procedure: as §3

DP4 variant R125A [24] = biological target: T6, DP4 variant R125A; assay: as above; settings: T = 37 °C, 100 mM Tris-HCl, pH 7.6, substrate concentration 25 μM
Procedure: as §3

| Compound | kcat (DP4 variant R125A [14]) [s⁻¹] | kcat (DP4 variant R125K [15]) [s⁻¹] | kcat (wild type DP4 [16]) [s⁻¹] | Hydrolysis of peptide hormone in comparison to the DP4 wild type enzyme (DP4 variant R125K [17]) | Hydrolysis of peptide hormone in comparison to the DP4 wild type enzyme (wild type DP4 [18]) | Hydrolysis of peptide hormone in comparison to the DP4 wild type enzyme (DP4 variant E205A [19]) | Hydrolysis of peptide hormone in comparison to the DP4 wild type enzyme (DP4 variant E206A [20]) | Hydrolysis of peptide hormone in comparison to the DP4 wild type enzyme (DP4 variant N710A [21]) | Hydrolysis of peptide hormone in comparison to the DP4 wild type enzyme (DP4 variant N710D [22]) | Hydrolysis of peptide hormone in comparison to the DP4 wild type enzyme (DP4 variant N710Q [23]) | further results |
| --- | --- | --- | --- | --- | --- | --- | --- | --- | --- | --- | --- |
| CC[C@H](C)[C@H](NC(=O)[C@@H]1CCCN1C(=O)[C@@H](N)C(C)(C)C)C(N)=O [t-Bu-Gly-Pro-Ile-NH2, t-Butyl-Gly-Pro-Ile-NH2] (H-[Tle]-Pro-Ile-NH2) | – | – | – | – | – | – | – | – | – | – | pIC50 (DP4 variant E205A [1]): 2.89; IC50 (DP4 variant E206A [2]): > 10 mM; pIC50 (DP4 variant N710A [3]): 3.85; pIC50 (DP4 variant N710D [4]): 3.40; IC50 (DP4 variant N710Q [5]): > 10 mM; pIC50 (DP4 variant R125A [6]): 4.10; pIC50 (DP4 variant R125K [7]): 4.28; pIC50 (wild type DP4 [8]): 5.17 |
| NP Y: physiological DP4 substrate, peptide hormone, proline in P1 position (H2N-Y-P-S…) | 23 ± 0.9 | 32 ± 0.5 | 37 ± 2.7 | +++ | +++ | – | – | – | – | – | Km (DP4 variant E205A [9]): 180 µM; kcat (DP4 variant E205A [9]): 11 ± 0.7 s⁻¹; Km (DP4 variant E206A [10]): 98 µM; Km (DP4 variant N710A [11]): 83 µM; kcat (DP4 variant N710A [11]): 1.8 ± 0.08 s⁻¹; Km (DP4 variant N710D [12]): 190 µM; kcat (DP4 variant N710D [12]): 12 ± 0.9 s⁻¹; Km (DP4 variant N710Q [13]): 510 µM; kcat (DP4 variant N710Q [13]): 2.0 ± 0.32 s⁻¹; Km (DP4 variant R125A [14]): 150 µM; Km (DP4 variant R125K [15]): 52 µM; Km (wild type DP4 [16]): 13 µM |
| PACAP38: physiological DP4 substrate, peptide hormone, serine in P1 position (H2N-H-S-Q…) | – | – | – | - (hydrolysis below 0,01% of the wild type enzyme) | +++ | - (hydrolysis below 0,01% of the wild type enzyme) | - (hydrolysis below 0,01% of the wild type enzyme) | - (hydrolysis below 0,01% of the wild type enzyme) | - (hydrolysis below 0,01% of the wild type enzyme) | - (hydrolysis below 0,01% of the wild type enzyme) | Hydrolysis of peptide hormone in comparison to the DP4 wild type enzyme (DP4 variant R125A [24]): - (hydrolysis below 0,01% of the wild type enzyme) |
| glucose-dependent insulinotropic peptide [GIP] | 0.16 ± 0.08 | 0.88 ± 0.08 | 3.9 ± 0.2 | – | +++ | - (hydrolysis below 0,01% of the wild type enzyme) | - (hydrolysis below 0,01% of the wild type enzyme) | - (hydrolysis below 0,01% of the wild type enzyme) | - (hydrolysis below 0,01% of the wild type enzyme) | - (hydrolysis below 0,01% of the wild type enzyme) | – |
